Here are results for 16 molecules from paper PMC7491322, “Molecular basis for the distinct cellular functions of the Lsm1–7 and Lsm2–8 complexes”.

Data set [1] addresses T1, Lsm1-7 (Schizosaccharomyces pombe, UniProt P87173;O94408;Q9Y7M4;O14352;O42978;Q9UUI1;O74499 …). In words: fluorescence polarization; FP: 100 mM NaCl, 20 mM Tris pH 8.2 (final ~8), 10 mM MgCl2, 1 mM TCEP, 1 mM Na azide, 0.1 mg/mL each tRNA, BSA and heparin; temperature not stated; 1 nM RNA final; Hill fixed at 1. The following applies: protein: recombinant, tags: Lsm4 C-term strep-II (as for Lsm2-8), Lsm7 untagged, GST (Lsm3) and MBP (Lsm6) with TEV sites, TEV treated, copies: 1;1;1;1;1;1;1, label: 5'-FAM. In general terms: Polarisation of emitted light reports the rotation of a fluorescent probe.

Data set [2] addresses T2, Lsm2-8 (Schizosaccharomyces pombe, UniProt O94408;Q9Y7M4;O14352;O42978;Q9UUI1;O74499;O74483 …). Described as above. The following applies: protein: recombinant; tags: Lsm4 C-term strep-II; Lsm7 C-term His6; GST (Lsm3) and MBP (Lsm6) with TEV sites, TEV treated; copies: 1;1;1;1;1;1;1; label: 5'-FAM; single-stranded.
Data set [3] concerns the target T2, Lsm2-8. In words: X-ray crystallography; 1.9 Å; FP: 100 mM NaCl, 20 mM Tris pH 8.2 (final ~8), 10 mM MgCl2, 1 mM TCEP, 1 mM Na azide, 0.1 mg/mL each tRNA, BSA and heparin; temperature not stated; 1 nM RNA final; Hill fixed at 1. Conditions: protein: recombinant; tags: Lsm4 C-term strep-II; Lsm7 C-term His6; GST (Lsm3) and MBP (Lsm6) with TEV sites, TEV treated; copies: 1;1;1;1;1;1;1; single-stranded.

Data set [4] concerns the target T3, Lsm1Δ56C-7 (Schizosaccharomyces pombe, UniProt P87173;O94408;Q9Y7M4;O14352;O42978;Q9UUI1;O74499 …). In words: fluorescence polarization; FP: 100 mM NaCl, 20 mM Tris pH 8.2 (final ~8), 10 mM MgCl2, 1 mM TCEP, 1 mM Na azide, 0.1 mg/mL each tRNA, BSA and heparin; temperature not stated; 1 nM RNA final; Hill fixed at 1. The following applies: protein: recombinant, tags: as P2, copies: 1;1;1;1;1;1;1, label: 5'-FAM.

The target in data set [5] is T3, Lsm1Δ56C-7. In words: X-ray crystallography; 2.1 Å; FP: 100 mM NaCl, 20 mM Tris pH 8.2 (final ~8), 10 mM MgCl2, 1 mM TCEP, 1 mM Na azide, 0.1 mg/mL each tRNA, BSA and heparin; temperature not stated; 1 nM RNA final; Hill fixed at 1. The following applies: protein: recombinant; tags: as P2; copies: 1;1;1;1;1;1;1; single-stranded.
In data set [6] the target is T2, Lsm2-8. In words: X-ray crystallography; 2.3 Å; FP: 100 mM NaCl, 20 mM Tris pH 8.2 (final ~8), 10 mM MgCl2, 1 mM TCEP, 1 mM Na azide, 0.1 mg/mL each tRNA, BSA and heparin; temperature not stated; 1 nM RNA final; Hill fixed at 1. The following applies: protein: recombinant; tags: Lsm4 C-term strep-II; Lsm7 C-term His6; GST (Lsm3) and MBP (Lsm6) with TEV sites, TEV treated; copies: 1;1;1;1;1;1;1; single-stranded.

Data set [7] addresses T1, Lsm1-7. In words: fluorescence polarization; FP: 100 mM NaCl, 20 mM Tris pH 8.2 (final ~8), 10 mM MgCl2, 1 mM TCEP, 1 mM Na azide, 0.1 mg/mL each tRNA, BSA and heparin; temperature not stated; 1 nM RNA final; Hill fixed at 1. Conditions: protein: recombinant; tags: Lsm4 C-term strep-II (as for Lsm2-8); Lsm7 untagged; GST (Lsm3) and MBP (Lsm6) with TEV sites, TEV treated; copies: 1;1;1;1;1;1;1; label: 5'-FAM; single-stranded.

Another data set concerns the target Lsm1-7 (Lsm5 N66A/N68A) (Schizosaccharomyces pombe, UniProt P87173;O94408;Q9Y7M4;O14352;O42978;Q9UUI1;O74499 …, N66A;N68A;Lsm5). Described as above. The following applies: protein: recombinant; tags: as P2; copies: 1;1;1;1;1;1;1; label: 5'-FAM; single-stranded.
The target in data set [8] is T3, Lsm1Δ56C-7. In words: X-ray crystallography; 1.8 Å; FP: 100 mM NaCl, 20 mM Tris pH 8.2 (final ~8), 10 mM MgCl2, 1 mM TCEP, 1 mM Na azide, 0.1 mg/mL each tRNA, BSA and heparin; temperature not stated; 1 nM RNA final; Hill fixed at 1. Conditions: protein: recombinant; tags: as P2; copies: 1;1;1;1;1;1;1; single-stranded.
Setting [9] is: 5' hairpin, single-stranded 3' end.

On to UUUUUUUUUUUUUUA (ssRNA) [U14A], for which the binding result with Lsm1-7 [1] (single-stranded) is listed as “binds”.

Regarding ACCCAUUUUU (ssRNA, 3' phosphate) [U6 3' tail, 3' phosphate], the Kd with Lsm2-8 [2] came out at 152 nM.

Regarding UUUUUUUUUUUUUUU (ssRNA) [U15], the binding result with Lsm1-7 [1] (single-stranded) is recorded as “binds”.

On to UUUUU (ssRNA) [UUUUU-3'-OH], for which the binding result with Lsm2-8 [3] is given as “binds”.

CCCCCUUUUUA (ssRNA): the Kd in the data set with Lsm1-7 [1] (single-stranded) came out at 29.7 nM; with Lsm1Δ56C-7 [4] (single-stranded), 13 nM.

Turning to ACCCAUUUUU (ssRNA) [U6 3' tail, 3'-OH], the equilibrium dissociation constant (Kd) in the data set with Lsm2-8 [2] was found to be 100 nM.

In the case of AUUUUG (ssRNA), the binding result with Lsm1Δ56C-7 [5] is listed as “binds”.

As to UUUUU (ssRNA, 2',3' cyclic phosphate) [UUUUU>p], in the data set with Lsm2-8 [6], the binding result is “binds”.

With AAAAAAAAAAAAAAA (ssRNA) [A15], the binding result in the data set with Lsm1Δ56C-7 [4] (single-stranded) is listed as “no binding”.

Consider ACCCAUUUUU (ssRNA, 2',3' cyclic phosphate) [U6 3' tail, 2',3' cyclic phosphate], for which the equilibrium dissociation constant (Kd) with Lsm2-8 [2] was 26 nM.

For GGCACUUCGGUGCCCCCCAUUUUA (structured_RNA) [5' stem-loop RNA with UUUUA site], the values for the Kd with Lsm1-7 [1] (setting [9]) and in the data set with Lsm1Δ56C-7 [4] (setting [9]) were 70 nM and 32 nM, respectively.

Turning to ACCCAUUUUUA (ssRNA) [3' monoadenylated oligoU RNA], the binding result with Lsm2-8 [2] was “binds”.

Consider UUUUUUUUUUUUUAA (ssRNA) [U13AA], for which the binding result with Lsm1-7 [1] (single-stranded) is “binds”.

As to UUUUUACCCCC (ssRNA), the dissociation constant (Kd) stood at 189 nM with Lsm1-7 [1] (single-stranded) and 34 nM in the data set with Lsm1Δ56C-7 [4] (single-stranded).

Regarding ACCCAUUUUU (ssRNA, 2',3' cyclic phosphate) [cyclic phosphate oligoU RNA (Lsm1-7 assays)], the binding signal was about 14 fold weaker than N4 with Lsm1-7 [7] and ~7 fold weaker than adenosine-terminated RNA with Lsm1-7 (Lsm5 N66A/N68A).

With UUUUUA (ssRNA), the binding result in the data set with Lsm1Δ56C-7 [8] is on record as “binds”.

By Kd is commonly meant the equilibrium constant for the complex coming apart.
